Results as given in the supplement of paper PMC10724198.
± gives the standard deviation of the averaged measurements.

test system: Saccharomyces cerevisiae; assay: protein stability index of tFT-peptide fusion (C-terminal peptide) (PSI (0-1 scale)); higher = more stable (slower turnover); conditions: genetic background: wild type; temperature: 30 C
Experimental: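 MPS profiling in S. cerevisiae of the yeast C-terminome library: the last 12 aa of each annotated ORF are fused to the C-terminus of a sfGFP-mCherry timer, after a GGGS linker. Cells are FACS-sorted into 8 mCherry/sfGFP bins and deep-sequenced. PSI runs from 0 (unstable) to 1 (stable); wild type and das1Δ backgrounds, two technical replicates each.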

| Sequence | protein stability index |
| --- | --- |
| IQTINEVRTNYM [RSE1 C-terminal 12 aa] | 0.744 ± 0.11 |
| IRDILKLGHPTR [GYP8 C-terminal 12 aa] | 0.666 ± 0.034 |
| IREFPEYFAAQA [RPL10 C-terminal 12 aa] | 0.671 ± 0.03 |
| IRKYGYNLAAYT [YLR462W C-terminal 12 aa] | 0.6563 ± 0.0049 |
| IRRYPFLWIPFL [YMR316C-B C-terminal 12 aa] | 0.147 ± 0.015 |
| IRYSMPYRLASN [YLR264C-A C-terminal 12 aa] | 0.648 ± 0.019 |
| ISKKVFGNKLHQ [MTM1 C-terminal 12 aa] | 0.656 ± 0.022 |
| ISLLSQFVYKGK [EXO1 C-terminal 12 aa] | 0.678 ± 0.01 |
| ISQWREWIDEKL [SRP102 C-terminal 12 aa] | 0.72 ± 0.029 |
| ITKQKALDYHYL [CBS2 C-terminal 12 aa] | 0.667 ± 0.016 |
| ITSKPPATVEWE [GUA1 C-terminal 12 aa] | 0.726 ± 0.015 |
| IYKYCCCCFCCC [YCK3 C-terminal 12 aa] | 0.594 ± 0.046 |
| KALRELQAEMGL [SNF7 C-terminal 12 aa] | 0.688 ± 0.025 |
| KASNGHIELIGE [CRF1 C-terminal 12 aa] | 0.699 ± 0.034 |
| KDAFLKELGLQN [PRD1 C-terminal 12 aa] | 0.678 ± 0.028 |
| KDEVTDDMQLEV [JLP2 C-terminal 12 aa] | 0.68 ± 0.03 |
| KDSKNGASTLTS [YSW1 C-terminal 12 aa] | 0.672 ± 0.018 |
| KDVETLSVSDEK [SEO1 C-terminal 12 aa] | 0.696 ± 0.043 |
| KEALLTRLEHMI [SWC7 C-terminal 12 aa] | 0.624 ± 0.011 |
| KEEEGSFNNVIG [PRE2 C-terminal 12 aa] | 0.66 ± 0.014 |
| KEFQNSDIADLY [SGV1 C-terminal 12 aa] | 0.686 ± 0.017 |

| Sequence | protein stability index |
| --- | --- |
| KFFLTISADVSF [YNL057W C-terminal 12 aa] | 0.647 ± 0.03 |
| KFRKDEDKSVKQ [TAN1 C-terminal 12 aa] | 0.702 ± 0.056 |
| KGDNITLITSAD [SME1 C-terminal 12 aa] | 0.685 ± 0.099 |
| KHKNYLSFNFTK [YLL065W C-terminal 12 aa] | 0.69 ± 0.012 |
| KHKSSSYANRDS [DUS3 C-terminal 12 aa] | 0.693 ± 0.026 |
| KINKNGLLENIL [IES3 C-terminal 12 aa] | 0.7227 ± 0.0051 |
| KISFKWKKQRKR [UTP11 C-terminal 12 aa] | 0.655 ± 0.015 |
| KIYMANAPPPPV [VPS54 C-terminal 12 aa] | 0.668 ± 0.02 |
| KKFIYQQLDMFS [YOL024W C-terminal 12 aa] | 0.7 ± 0.024 |
| KKGLTRSVKFKN [SAS10 C-terminal 12 aa] | 0.667 ± 0.017 |
| KKHDWSDISQLW [OSH3 C-terminal 12 aa] | 0.728 ± 0.016 |
| KKKSQNKSRKDD [PBR1 C-terminal 12 aa] | 0.691 ± 0.069 |
| KKLAKSGIEFKW [NOP15 C-terminal 12 aa] | 0.684 ± 0.063 |
| KKTAIDKLITLL [AIM18 C-terminal 12 aa] | 0.342 ± 0.017 |
| KLKRAKRKGISE [IMP21 C-terminal 12 aa] | 0.692 ± 0.012 |
| KLRAKRLAKGGR [RPG1 C-terminal 12 aa] | 0.705 ± 0.011 |
| KNFRNQYSLHPP [YHR095W C-terminal 12 aa] | 0.6752 ± 0.0034 |
| KNRRGNRSGYRR [THO1 C-terminal 12 aa] | 0.689 ± 0.024 |
| KPIETVFDEETV [YIP3 C-terminal 12 aa] | 0.72 ± 0.041 |
| KQGPKNLKKTKK [TAF13 C-terminal 12 aa] | 0.679 ± 0.0097 |
| KQQSWLRRVIGY [ENB1 C-terminal 12 aa] | 0.688 ± 0.038 |

| Sequence | protein stability index |
| --- | --- |
| KQSKKKTSFTRF [YBL028C C-terminal 12 aa] | 0.66155 ± 0.00019 |
| KRHLTPAVELDY [PRP40 C-terminal 12 aa] | 0.6566 ± 0.001 |
| KRKFLGEHRKTL [TOK1 C-terminal 12 aa] | 0.67338 ± 0.00061 |
| KRLIGIAEATLN [SEC31 C-terminal 12 aa] | 0.667 ± 0.014 |
| KRNFCPFHDAVF [PIB1 C-terminal 12 aa] | 0.716 ± 0.043 |
| KRQGRTLYGFGG [YBR009C; YNL030W C-terminal 12 aa] | 0.693 ± 0.021 |
| KSGPEWIAENRD [TUM1 C-terminal 12 aa] | 0.7166 ± 0.0051 |
| KSLWDYVKKNTE [TAF14 C-terminal 12 aa] | 0.712 ± 0.019 |
| KSTNCCLIYDST [KKQ8 C-terminal 12 aa] | 0.675 ± 0.036 |
| KSVVVRSKEKQS [GAA1 C-terminal 12 aa] | 0.441 ± 0.014 |
| KTETLSVPRILT [YBR090C C-terminal 12 aa] | 0.722 ± 0.059 |
| KTIDNLKALMKN [PFD1 C-terminal 12 aa] | 0.721 ± 0.019 |
| KTLWSRFIEHFV [MIM2 C-terminal 12 aa] | 0.671 ± 0.023 |
| KTVGKLVLEIPQ [ZTA1 C-terminal 12 aa] | 0.701 ± 0.051 |
| KTVIENPLEMLL [LAT1 C-terminal 12 aa] | 0.694 ± 0.025 |
| KVEFSKSETKTL [MSL1 C-terminal 12 aa] | 0.6736 ± 0.0014 |
| KVHQGKYNGPGL [AI2 C-terminal 12 aa] | 0.727 ± 0.037 |
| KVKRLMDFLEED [NSL1 C-terminal 12 aa] | 0.694 ± 0.024 |
| KWQARQRGLQRF [PMP1 C-terminal 12 aa] | 0.704 ± 0.018 |
| KWVGQYPVPGDI [SHM1 C-terminal 12 aa] | 0.687 ± 0.04 |
| KYFADLTQSITK [YBR242W C-terminal 12 aa] | 0.687 ± 0.029 |

| Sequence | protein stability index |
| --- | --- |
| LADSKHCSGLHK [ASF2 C-terminal 12 aa] | 0.703 ± 0.0086 |
| LAFSGGLANSIA [DSE4 C-terminal 12 aa] | 0.677 ± 0.024 |
| LALYKKAYGIEF [STP2 C-terminal 12 aa] | 0.6671 ± 0.0058 |
| LAPPPQKQSSSD [GRH1 C-terminal 12 aa] | 0.729 ± 0.029 |
| LASEAAVGCNKS [YKL156C-A C-terminal 12 aa] | 0.745 ± 0.055 |
| LASKHSQYTSPQ [RGT2 C-terminal 12 aa] | 0.662 ± 0.014 |
| LCMSCGYVSAGK [YMR173W-A C-terminal 12 aa] | 0.749 ± 0.046 |
| LDDIEKDLRANA [SWI4 C-terminal 12 aa] | 0.679 ± 0.012 |
| LDISASLEKIAT [FMP52 C-terminal 12 aa] | 0.682 ± 0.011 |
| LECTPIINLFIV [MNL1 C-terminal 12 aa] | 0.13125 ± 2.3e-05 |
| LEDSTRVYSNLM [ARP1 C-terminal 12 aa] | 0.6835 ± 0.0043 |
| LEEELTKIGLLP [GRX8 C-terminal 12 aa] | 0.698 ± 0.0098 |
| LEKLLKTVLNTL [ORC2 C-terminal 12 aa] | 0.696 ± 0.028 |
| LENTLKDSGVLQ [GPA2 C-terminal 12 aa] | 0.717 ± 0.047 |
| LESADKKKDVKA [DUS1 C-terminal 12 aa] | 0.713 ± 0.015 |
| LETDQDFLDGLL [YER034W C-terminal 12 aa] | 0.695 ± 0.0081 |
| LEVTTKPREWVK [HEM13 C-terminal 12 aa] | 0.712 ± 0.069 |
| LFSSRNTVCAPY [YIL134C-A C-terminal 12 aa] | 0.727 ± 0.018 |
| LFSVLVALLALL [CRH1 C-terminal 12 aa] | 0.48 ± 0.017 |
